# Experimental data published in publication PMC3242763.
# B1: Natural full-length protein C inhibitor from human blood plasma (natural protein)
# chain: EMKKRVEDLHVGATVAPSSRRDFTFDLYRALASAAPSQSIFFSPVSISMSLAMLSLGAGSSTKMQILEGLGLNLQKSSEKELHRGFQQLLQELNQPRDGFQLSLGNALFTDLVVDLQDTFVSAMKTLYLADTFPTNFRDSAGAMKQINDYVAKQTKGKIVDLLKNLDSNAVVIMVNYIFFKAKWETSFNHKGTQEQDFYVTSETVVRVPMMSREDQYHYLLDRNLSCRVVGVPYQGNATALFILPSEGKMQQVENGLSEKTLRKWLKMFKKRQLELYLPKFSIEGSYQLEKVLPSLGISNVFTSHADLSGISNHSNIQVSEMVHKAVVEVDESGTRAAAATGTIFTFRSARLNSQRLVFNRPFLMFIVDNNILFLGKVNRP
# modifications: N-glycans at Asn-230, Asn-243 and Asn-319
# B2: Neuraminic acid free full-length protein C inhibitor from human blood plasma (natural protein)
# chain: B1 chain
# modifications: N-glycans at Asn-230, Asn-243 and Asn-319, sialic acids removed with neuraminidase
# B3: PNGase F-treated full-length protein C inhibitor from human blood plasma (natural protein)
# chain: B1 chain
# modifications: N-glycans removed with PNGase F
# Molecular target: Prostate specific antigen used in the inhibition kinetics (human) (UniProt P07288)
# Sequence of UniProt P07288 (P07288 25-261): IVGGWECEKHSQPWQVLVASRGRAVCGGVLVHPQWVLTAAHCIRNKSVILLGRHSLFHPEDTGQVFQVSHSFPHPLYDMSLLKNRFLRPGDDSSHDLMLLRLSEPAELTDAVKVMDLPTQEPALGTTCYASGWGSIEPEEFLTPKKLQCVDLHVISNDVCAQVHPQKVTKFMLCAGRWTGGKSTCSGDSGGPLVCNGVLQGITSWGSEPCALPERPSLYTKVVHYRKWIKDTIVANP
row,"second-order rate constant for PSA inhibition (discontinuous assay of residual PSA activity on a chromogenic substrate, 350 nM PSA, 10-fold excess of PCI, 25°C, pH 7.4) [M^−1s^−1]",Molecule
1,5.8,"Neuraminic acid free, NH2-terminally cleaved protein C inhibitor from human blood plasma (natural protein)"
2,29,PNGase F-treated protein C inhibitor from human blood plasma lacking the six NH2-terminal amino acids (natural protein)
3,4.1,Protein C inhibitor from human blood plasma lacking the six NH2-terminal amino acids (natural protein)
4,4.3,B1
5,5.2,B2
6,4.8,B3
